Laboratory results: paper PMC11266516

Target: Fc gamma receptors on mouse peritoneal macrophages (mouse (endogenous in peritoneal macrophages))
Assay: flow cytometry on cells; ImageStream X imaging flow cytometry; peritoneal wash cells (2 x 10^6) in 100 uL 1% BSA PBS stained with 0.125 ug mouse IgG-DyLight 405 and anti-CD11b-FITC, 30 min, room temperature; no Fc block

mouse IgG-DyLight 405 (fluorescently conjugated mouse monomeric IgG) (antibody)
percent of CD11b+ macrophages that bound exogenous IgG: 98.6%
